Data on six molecules can be found in publication PMC6544321, “Structural insights into histone chaperone Chz1-mediated H2A.Z recognition and histone replacement” (PLoS Biology, 2019).

Sequences and labels used below:
B1: middle region of Chz1 (Chz1 64-124) (domain or fragment, S. cerevisiae (budding yeast), UniProt P40019 64-124, looked up)
chain: TVEDSESDMDDAKLDALMGNEGEEEEDDLAEIDTSNIITSGRRTRGKVIDYKKTAEELDKK
notes: Chz1, budding yeast, residues 64-124; also called Chz1-M; source: E. coli BL21-CodonPLUS(DE3)-RIPL, purified (Ni-NTA, HiTrap Q)
B2: middle and C-terminal region of Chz1 (Chz1 64-153) (domain or fragment, S. cerevisiae (budding yeast), UniProt P40019 64-153, looked up)
chain: TVEDSESDMDDAKLDALMGNEGEEEEDDLAEIDTSNIITSGRRTRGKVIDYKKTAEELDKKEPSTGSKDDVGYGEKEEDDEDEEDDDFKE
notes: Chz1, budding yeast, residues 64-153; only residues 142-153 are seen in the crystal structure; also called Chz1-MC; Chz1-MC WT; source: E. coli BL21-CodonPLUS(DE3)-RIPL, purified (Ni-NTA, HiTrap Q)
B3: single chain H2A-H2B with H2A NKLGNV→DSIRA (other)
chain: RKETYSSYIYKVLKQTHPDTGISQKSMSILNSFVNDIFERIATEASKLAAYNKKSTISAREIQTAVRLILPGELAKHAVSEGTRAVTKYSSSTQAQSRSAKAGLTFPVGRVHRLLRRGNYAQRIGSGAPVYLTAVLEYLAAEILELAGNAARDNKKTRIIPRHLQLAIRNDDELDSLIRATIAQGGVLPNI
B4: single chain H2A-H2B with H2A N91G (other)
chain: MRKETYSSYIYKVLKQTHPDTGISQKSMSILNSFVNDIFERIATEASKLAAYNKKSTISAREIQTAVRLILPGELAKHAVSEGTRAVTKYSSSTQAQSRSAKAGLTFPVGRVHRLLRRGNYAQRIGSGAPVYLTAVLEYLAAEILELAGNAARDNKKTRIIPRHLQLAIRGDDELNKLLGNVTIAQGGVLPNI
B5: single chain H2A-H2B with H2A P50A (other)
chain: RKETYSSYIYKVLKQTHPDTGISQKSMSILNSFVNDIFERIATEASKLAAYNKKSTISAREIQTAVRLILPGELAKHAVSEGTRAVTKYSSSTQAQSRSAKAGLTFPVGRVHRLLRRGNYAQRIGSGAAVYLTAVLEYLAAEILELAGNAARDNKKTRIIPRHLQLAIRNDDELNKLLGNVTIAQGGVLPNI
B6: yeast single chain H2A-H2B (other)
chain: B5 chain with A129P
modifications: Limits and order (H2B then H2A) are taken by homology from scZB in 2JSS/6AE8. The paper's H2B numbers are mature (+1 on precursor) and its H2A numbers are precursor. H2A.1 paralogue assumed.

Positions count from the first letter of the chain named. Numbers in names are those of the source.

What all share (details): both partners purified
The target of test [1] is B6. Description: ITC; MicroCal VP-ITC, 25°C, 20 mM MES (pH 6.0), 0.5 M NaCl; chaperone (50 or 150 μM) injected into histones (5 μM scZB or 15 μM scAB and mutants) in the cell; one-site fit. For orientation: ITC needs no label: the signal is the heat of the interaction.
The target in test [2] is B6. Description: ITC; 0.2 M NaCl (Table 1); Swc2-Z or Chz1-M injected into single-chain histone dimers; otherwise as the ITC methods (25°C, 20 mM MES pH 6.0).
The target of test [3] is B5. The test can be described thus: ITC; MicroCal VP-ITC, 25°C, 20 mM MES (pH 6.0), 0.5 M NaCl; chaperone (50 or 150 μM) injected into histones (5 μM scZB or 15 μM scAB and mutants) in the cell; one-site fit.
Test [4] deals with B4. The test is described as above.
The target in test [5] is B3. Described as above.
Test [6] deals with B2. Described as above.
The target of test [7] is B1. The description is as above.
The target in test [8] is B1. Description: ITC; 0.2 M NaCl (Table 1); Swc2-Z or Chz1-M injected into single-chain histone dimers; otherwise as the ITC methods (25°C, 20 mM MES pH 6.0).
Test [9] deals with T1, Swc2-Z, the 1–136 segment of the Swc2 subunit of the SWR1 complex (yeast).
T1 construct: SWR complex protein 2 (Swc2), subunit of the yeast SWR1 complex, residues 1-136
The description is as above.

With B1, the “stoichiometry N” value was determined as 0.7 sites in [1] and 1 sites in [2].
As for B2, the “stoichiometry N” value was determined as 1 sites in [3], 0.9 sites in test [1], 1 sites in test [4] and 0.9 sites in test [5].
Take B3: binding in test [6] was put at a Kd of 5080 ± 180 nM.
On the same count and under the same terms, the value for B4 was 420 ± 20 nM; that for B5 was 530 ± 40 nM.
Turning to B6, the equilibrium dissociation constant (Kd) was found to be 5020 ± 420 nM in [6], 7870 ± 350 nM in test [7], 300 ± 2 nM in [8] and 200 ± 70 nM in test [9].

As usually defined, the stoichiometry N is a count of units in the complex or per binding partner. The Kd is the concentration at which binding is half-saturated. A higher Kd goes with a looser complex.
